Source: article PMC12783888
* marks the point of attachment. AMC = Cc1cc(=O)oc2cc(N*)ccc12

T1: SplA wildtype (S. aureus strain USA300 variant) (Staphylococcus aureus strain USA300) (UniProt Q2FFS9)
T1 sequence: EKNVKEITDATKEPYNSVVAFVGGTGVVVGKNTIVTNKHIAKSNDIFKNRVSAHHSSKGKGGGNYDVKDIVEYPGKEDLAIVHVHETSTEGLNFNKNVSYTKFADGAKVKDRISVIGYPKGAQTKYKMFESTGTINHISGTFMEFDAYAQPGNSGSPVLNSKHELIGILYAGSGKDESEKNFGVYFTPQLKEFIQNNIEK


What was measured:
[1] = biological target: SplA allelic variant A4 (Staphylococcus aureus) (UniProt Q2FFS9)
[2] = biological target: SplA allelic variant A5 (Staphylococcus aureus) (UniProt Q2FFS9)
[3] = biological target: T1, SplA wildtype (S. aureus strain USA300 variant) (Staphylococcus aureus strain USA300)
[4] = biological target: SplA allelic variant A1 (Staphylococcus aureus) (UniProt Q2FFS9)
[5] = biological target: SplA allelic variant A6 (Staphylococcus aureus) (UniProt Q2FFS9)
[6] = biological target: SplA allelic variant A3 (Staphylococcus aureus) (UniProt Q2FFS9)

Molecule	KM of Michaelis-Menten kinetics, cleavage of the fluorogenic substrate (AMC release) [1] [µM]	KM of Michaelis-Menten kinetics, cleavage of the fluorogenic substrate (AMC release) [2] [µM]	KM of Michaelis-Menten kinetics, cleavage of the fluorogenic substrate (AMC release) [3] [µM]	KM of Michaelis-Menten kinetics, cleavage of the fluorogenic substrate (AMC release) [4] [µM]	KM of Michaelis-Menten kinetics, cleavage of the fluorogenic substrate (AMC release) [5] [µM]	KM of Michaelis-Menten kinetics, cleavage of the fluorogenic substrate (AMC release) [6] [µM]
Ac-Tyr-Leu-Tyr-{AMC}	65	35	49	54	109	39
Ac-VWLY-{AMC} (SMILES CC(=O)N[C@H](C(=O)N[C@@H](Cc1c[nH]c2ccccc12)C(=O)N[C@@H](CC(C)C)C(=O)N[C@@H](Cc1ccc(O)cc1)C(=O)Nc1ccc2c(C)cc(=O)oc2c1)C(C)C) [Ac-VWLY-AMC]	23	13	11	26	19	11
